Source: the RNAGym collection of RNA variant scans (doi:10.7554/elife.80360)

B1: HDV Ribozyme (parent)
chain: GGCCGGCAUGGUCCCAGCCUCCUCGCUGGCGCCGGCUGGGCAACAUUCCGAGGGGACCGUCCCCUCGGUAAUGGCGAAUGGGACCCA

Variants of: B1
Assay: self-cleavage, relative activity (ratio to wild type); higher = more cleavage; co-transcriptional

Row | Variant | self-cleavage
1 | G53U A77C | 0.453
2 | A42C A43U | 0.122
3 | G50C C62A | 0.475
4 | G38U G55A | 0.137
5 | U60G A83G | 0.712
6 | C22A C64A | 0.107
7 | C48G C63A | 0.435
8 | C21U U47C | 0.271
9 | U47G G81A | 0.237
10 | G50U C85G | 0.872
11 | C48U C66A | 0.923
12 | G6U U69C | 0.655
13 | C3U U69A | 0.831
14 | A42G A51C | 0.831
15 | G34U G81U | 0.18
16 | G54U C85G | 0.888
17 | C33U A78U | 0.378
18 | C57U G68A | 1.02
19 | G10A G31C | 0.198
20 | A71C A83U | 0.297
21 | C18A A43G | 0.192
22 | U46A C84A | 0.629
23 | G10A U60G | 0.748
24 | G1A U37A | 0.161

Row | Variant | self-cleavage
25 | G39C A71U | 0.229
26 | A43G U46A | 0.782
27 | C22U C75U | 0.214
28 | C4G C49G | 0.504
29 | G11C U60C | 0.511
30 | G55U A78G | 0.684
31 | U46G U72C | 0.287
32 | U9A C44G | 0.914
33 | G2A U79C | 0.0804
34 | G11U G59U | 0.41
35 | A70G G76C | 0.956
36 | G2A C32G | 0.0441
37 | U27C C49A | 0.776
38 | G5A C7A | 0
39 | G5C G17C | 0.151
40 | C13U A70U | 0.342
41 | C63U G80C | 0.218
42 | A8G C63G | 1.11
43 | A70C G73C | 0.514
44 | G74A G76C | 0.464
45 | A8C U12G | 0.831
46 | C21U C57A | 0.233
47 | G73A G80A | 0.0652
48 | G25U C32A | 0.105

Row | Variant | self-cleavage
49 | A43C C58G | 0.443
50 | C32A U46A | 0.185
51 | G38C G55A | 0.124
52 | G5C C15U | 0.356
53 | G10A U23C | 0.554
54 | G34U A77C | 0.0678
55 | U37A A42G | 0.0665
56 | A16C C32A | 0.0554
57 | G67A C75U | 0.189
58 | C18A C63A | 0.0692
59 | A16G C58A | 0.762
60 | U72A A77C | 0.199
61 | U9A C61G | 0.682
62 | G55U G74A | 0.668
63 | G1A G74U | 0.0563
64 | G1U G59U | 0.451
65 | C75U G76C | 0.271
66 | U27C U47A | 0.519
67 | G28U C57A | 0.102
68 | G35C G53U | 0.204
69 | C4U A42C | 0.0475
70 | U60C G76U | 1.05
71 | C4A G5A | 0.13
72 | C13A U47G | 0.138

Row | Variant | self-cleavage
73 | A42U A83G | 0.177
74 | U79G G80U | 0.366
75 | C4U G55U | 0.639
76 | G25U C61U | 0.163
77 | G2A C57A | 0.258
78 | G2C G68U | 0.0449
79 | G5U C13U | 0.115
80 | C19G G52C | 0.121
81 | A8C A78U | 0.119
82 | U65A C86A | 1.07
83 | U20C C61A | 0.166
84 | C63A U65A | 0.427
85 | C41G U69G | 0.755
86 | G31A G53U | 0.346
87 | A16G G80A | 0.243
88 | C19G C58A | 0.0256
89 | G6C A83U | 0.0692
90 | G17C C66U | 0.156
91 | G25C G67A | 0.123
92 | A70U G73A | 0.614
93 | C19A C86A | 0.273
94 | U47G U60G | 1.21
95 | G28U U65C | 0.0707
96 | C32G A78G | 0.0536

Row | Variant | self-cleavage
97 | A43C A78C | 0.0723
98 | G40U A77G | 0.462
99 | U69A A78U | 0.222
100 | C13A C44A | 0.119
101 | A83U C85G | 0.208
102 | U46A G55A | 0.716
103 | C49A C84G | 0.743
104 | G31U C32U | 0.115
105 | C61A C85G | 0.988
106 | G38U C64U | 0.25
107 | G35U C44A | 0
108 | G17U G38A | 0.0755
109 | C19G G28A | 0.237
110 | U79G C86G | 0.712
111 | G39A A45C | 0.188
112 | C13G A42C | 0
113 | C33G A51G | 0.111
114 | A8C U46G | 0.554
115 | C19U U47C | 0.111
116 | G2U U9C | 0.104
117 | G1U U9G | 0.399
118 | G29U A42C | 0.125
119 | C49U A51C | 0.712
120 | A16U G82C | 0.256

Row | Variant | self-cleavage
121 | A16C C36U | 0.578
122 | U27G G74C | 0.302
123 | U9A G34U | 0.374
124 | A45C G67U | 0.604
125 | U47G C64A | 0.875
126 | C24U A45U | 0.489
127 | U37G A83G | 0.138
128 | G6U U47A | 0.482
129 | U46C | 0.815
130 | A45U G82A | 0.162
131 | C14A G76A | 0.718
132 | G2U U72A | 0.0287
133 | C7A U27A | 0.609
134 | A8G U72A | 0.554
135 | U12A A87U | 0.262
136 | C14U A42C | 0.232
137 | C58U C75U | 0.302
138 | G38A C57U | 0.211
139 | U46G G80U | 0.202
140 | G38A G40A | 0.262
141 | C44G C75U | 0.0627
142 | G40C A71G | 0.162
143 | G1A A70U | 0
144 | G73C C84U | 0.321

Row | Variant | self-cleavage
145 | U65A G73C | 0.415
146 | G2C A8C | 0.0639
147 | C4U U60C | 0.872
148 | U20C U47C | 0.262
149 | G11C U23A | 0.465
150 | G2U C7U | 0.0264
151 | C4G G82U | 0.0421
152 | G2U A71U | 0.0287
153 | C33A C85G | 0.309
154 | C21A C24G | 0
155 | C18A C49U | 0.133
156 | G54U G68A | 0.81
157 | C61U A70C | 0.892
158 | C33A G76A | 0.228
159 | G76U C85A | 1.05
160 | G25A U27C | 0.538
161 | C21G G25U | 0
162 | C7G A16U | 0.0692
163 | A42G A78U | 0.162
164 | G40C C58A | 0.151
165 | C22U G52C | 0.635
166 | C13G C14A | 0
167 | U12A U27G | 0.237
